Patent US20170058297A1

Columns and labels:
[1] = molecular target: Cre-B3 (P1 Bacteriophage) (UniProt P06956); test: cell-based or functional assay
[2] = molecular target: Cre-B2 (P1 Bacteriophage) (UniProt P06956); test: cell-based or functional assay
[3] = molecular target: Cre-A3 (P1 Bacteriophage) (UniProt P06956); test: cell-based or functional assay
Cre-B2 = molecular target: T1, Cre-B2
T1 chain: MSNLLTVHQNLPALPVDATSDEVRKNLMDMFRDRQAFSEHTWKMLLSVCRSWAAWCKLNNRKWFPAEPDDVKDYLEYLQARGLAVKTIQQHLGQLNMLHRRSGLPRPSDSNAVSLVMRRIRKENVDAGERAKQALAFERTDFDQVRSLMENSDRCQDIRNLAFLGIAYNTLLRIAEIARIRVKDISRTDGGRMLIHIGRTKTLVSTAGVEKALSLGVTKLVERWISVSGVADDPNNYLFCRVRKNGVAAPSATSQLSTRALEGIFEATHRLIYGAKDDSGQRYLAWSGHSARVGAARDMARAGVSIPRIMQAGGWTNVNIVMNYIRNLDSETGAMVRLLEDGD

[4] = molecular target: Cre-B1 (P1 Bacteriophage) (UniProt P06956); test: cell-based or functional assay
[5] = molecular target: Cre-A1 (P1 Bacteriophage) (UniProt P06956); test: cell-based or functional assay
Cre-B1 = molecular target: T2, Cre-B1
T2 chain: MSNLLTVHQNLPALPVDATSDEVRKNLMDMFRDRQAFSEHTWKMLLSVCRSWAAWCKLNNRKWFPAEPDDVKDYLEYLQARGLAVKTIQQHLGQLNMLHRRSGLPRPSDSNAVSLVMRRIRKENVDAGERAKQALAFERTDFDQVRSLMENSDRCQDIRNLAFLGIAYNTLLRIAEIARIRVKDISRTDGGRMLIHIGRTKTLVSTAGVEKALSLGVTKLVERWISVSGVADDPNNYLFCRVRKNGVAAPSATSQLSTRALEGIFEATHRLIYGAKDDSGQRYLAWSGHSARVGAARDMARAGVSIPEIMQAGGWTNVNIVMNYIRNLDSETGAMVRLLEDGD

B1: Cre-A3 (protein)
chain: MSNLLTVHQNLPALPVDATSDEVRRNLMRMFELRRAFSEHTWKMLLSVCRSWAAWCKLNNRKWFPAEPEDVRDYLLYLQARGLAVKTIQQHLGQLNMLHRRSGLPRPSDSNAVSLVMRRIRKLNVDAGERAKQALAFERTDFDQVRSLMENSDRCQDIRNLAFLGIAYNTLLRIAEIARIRVKDISRTDGGRMLIHIGRTKTLVSTAGVEKALSLGVTKLVERWISVSGVADDPNNYLFCRVRKNGVAAPSATSQLSTRALEGIFEATHRLIYGAKDDSGQRYLAWSGHSARVGAARDMARAGVSIPEIMQAGGWTNVNIVMNYIRNLDSETGAMVELLEDGD
Q: Which RFP positive cells of 7000 sorted, Ai14 mouse ES reporter cells, promoter hbb + cmv, replicate 1 [1] does the source give for B1 here?
A: 1 cells

Q: What about the RFP positive cells of 7000 sorted, Ai14 mouse ES reporter cells, promoter hbb + cmv, replicate 2 [1] of the same binder?
A: 2 cells

Q: What about the RFP positive cells of 7000 sorted, Ai14 mouse ES reporter cells, promoter hbb + cmv, replicate 3 [1] of the same binder?
A: 1 cells

Q: And the RFP positive cells of 7000 sorted, Ai14 mouse ES reporter cells, promoter hbb + sp1, replicate 1 [1]?
A: 1 cells

Q: What about the RFP positive cells of 7000 sorted, Ai14 mouse ES reporter cells, promoter hbb + sp1, replicate 2 [1] of the same binder?
A: 1 cells

Q: And the RFP positive cells of 7000 sorted, Ai14 mouse ES reporter cells, promoter hbb + sp1, replicate 3 [1]?
A: 2 cells

Q: What about the RFP positive cells of 7000 sorted, Ai14 mouse ES reporter cells, promoter hbb, replicate 1 [1] of the same binder?
A: 0 cells

Q: What about the RFP positive cells of 7000 sorted, Ai14 mouse ES reporter cells, promoter hbb, replicate 2 [1] of the same binder?
A: 1 cells

Q: And the RFP positive cells of 7000 sorted, Ai14 mouse ES reporter cells, promoter hbb, replicate 3 [1]?
A: 0 cells

Q: And the RFP positive cells of 7000 sorted, Ai14 mouse ES reporter cells, promoter hbb + cmv, replicate 1 [2]?
A: 1600 cells

Q: What about the RFP positive cells of 7000 sorted, Ai14 mouse ES reporter cells, promoter hbb + cmv, replicate 2 [2] of the same binder?
A: 1650 cells

Q: And the RFP positive cells of 7000 sorted, Ai14 mouse ES reporter cells, promoter hbb + cmv, replicate 3 [2]?
A: 1700 cells

Q: And the RFP positive cells of 7000 sorted, Ai14 mouse ES reporter cells, promoter hbb + sp1, replicate 1 [2]?
A: 1500 cells

Q: And the RFP positive cells of 7000 sorted, Ai14 mouse ES reporter cells, promoter hbb + sp1, replicate 2 [2]?
A: 1530 cells

Q: And the RFP positive cells of 7000 sorted, Ai14 mouse ES reporter cells, promoter hbb + sp1, replicate 3 [2]?
A: 1610 cells

Q: What about the RFP positive cells of 7000 sorted, Ai14 mouse ES reporter cells, promoter hbb, replicate 1 [2] of the same binder?
A: 256 cells

Q: What about the RFP positive cells of 7000 sorted, Ai14 mouse ES reporter cells, promoter hbb, replicate 2 [2] of the same binder?
A: 233 cells

Q: And the RFP positive cells of 7000 sorted, Ai14 mouse ES reporter cells, promoter hbb, replicate 3 [2]?
A: 284 cells

Q: What about the recombinase activity in mouse ES reporter cells, relative to wild type Cre (% of wild type Cre activity) [2] of the same binder?
A: 40

Q: What about the RFP positive cells of 7000 sorted, Ai14 mouse ES reporter cells, promoter hbb + cmv, replicate 1 [3] of the same binder?
A: 0 cells

Q: What about the RFP positive cells of 7000 sorted, Ai14 mouse ES reporter cells, promoter hbb + cmv, replicate 2 [3] of the same binder?
A: 1 cells

Q: What about the RFP positive cells of 7000 sorted, Ai14 mouse ES reporter cells, promoter hbb + cmv, replicate 3 [3] of the same binder?
A: 1 cells

Q: What about the RFP positive cells of 7000 sorted, Ai14 mouse ES reporter cells, promoter hbb + sp1, replicate 1 [3] of the same binder?
A: 1 cells

Q: What about the RFP positive cells of 7000 sorted, Ai14 mouse ES reporter cells, promoter hbb + sp1, replicate 2 [3] of the same binder?
A: 0 cells

Q: And the RFP positive cells of 7000 sorted, Ai14 mouse ES reporter cells, promoter hbb + sp1, replicate 3 [3]?
A: 0 cells

Q: What about the RFP positive cells of 7000 sorted, Ai14 mouse ES reporter cells, promoter hbb, replicate 1 [3] of the same binder?
A: 0 cells

Q: And the RFP positive cells of 7000 sorted, Ai14 mouse ES reporter cells, promoter hbb, replicate 2 [3]?
A: 0 cells

Q: And the RFP positive cells of 7000 sorted, Ai14 mouse ES reporter cells, promoter hbb, replicate 3 [3]?
A: 1 cells

Q: What about the “recombinase activity in vitro (loxP excision, gel)” value of the same binder?
A: This mutation successfully disrupted formation of Cre-A2 homotetramers

Q: What about the “recombinase activity in vitro on six loxP/M7 hybrid substrates (gel)” value (Cre-B2-C2#4) of the same binder?
A: In vitro assays confirmed that the heterotetrameric Cre is more specific in recombining different arrangement of loxP/M7 sites

Q: What about the “recombinase activity in vitro (loxP excision, gel)” value (Cre-B2) of the same binder?
A: preserving activity in the Cre-A3+Cre-B2 heterotetramer

B2: Cre-A1 (protein)
chain: MSNLLTVHQNLPALPVDATSDEVRRNLMRMFELRRAFSEHTWKMLLSVCRSWAAWCKLNNRKWFPAEPEDVRDYLLYLQARGLAVKTIQQHLGQLNMLHRRSGLPRPSDSNAVSLVMRRIRKENVDAGERAKQALAFERTDFDQVRSLMENSDRCQDIRNLAFLGIAYNTLLRIAEIARIRVKDISRTDGGRMLIHIGRTKTLVSTAGVEKALSLGVTKLVERWISVSGVADDPNNYLFCRVRKNGVAAPSATSQLSTRALEGIFEATHRLIYGAKDDSGQRYLAWSGHSARVGAARDMARAGVSIPEIMQAGGWTNVNIVMNYIRNLDSETGAMVRLLEDGD
Q: Which results are given for B2?
A: RFP positive cells of 7000 sorted, Ai14 mouse ES reporter cells, promoter hbb + cmv, replicate 1 [4]: 5870 cells; RFP positive cells of 7000 sorted, Ai14 mouse ES reporter cells, promoter hbb + cmv, replicate 2 [4]: 6030 cells; RFP positive cells of 7000 sorted, Ai14 mouse ES reporter cells, promoter hbb + cmv, replicate 3 [4]: 6360 cells; RFP positive cells of 7000 sorted, Ai14 mouse ES reporter cells, promoter hbb + sp1, replicate 1 [4]: 5700 cells; RFP positive cells of 7000 sorted, Ai14 mouse ES reporter cells, promoter hbb + sp1, replicate 2 [4]: 6120 cells; RFP positive cells of 7000 sorted, Ai14 mouse ES reporter cells, promoter hbb + sp1, replicate 3 [4]: 5990 cells; RFP positive cells of 7000 sorted, Ai14 mouse ES reporter cells, promoter hbb, replicate 1 [4]: 1120 cells; RFP positive cells of 7000 sorted, Ai14 mouse ES reporter cells, promoter hbb, replicate 2 [4]: 1210 cells; RFP positive cells of 7000 sorted, Ai14 mouse ES reporter cells, promoter hbb, replicate 3 [4]: 1320 cells; RFP positive cells of 7000 sorted, Ai14 mouse ES reporter cells, promoter hbb + cmv, replicate 1 [5]: 3850 cells; RFP positive cells of 7000 sorted, Ai14 mouse ES reporter cells, promoter hbb + cmv, replicate 2 [5]: 3530 cells; RFP positive cells of 7000 sorted, Ai14 mouse ES reporter cells, promoter hbb + cmv, replicate 3 [5]: 3690 cells; RFP positive cells of 7000 sorted, Ai14 mouse ES reporter cells, promoter hbb + sp1, replicate 1 [5]: 3750 cells; RFP positive cells of 7000 sorted, Ai14 mouse ES reporter cells, promoter hbb + sp1, replicate 2 [5]: 3420 cells; RFP positive cells of 7000 sorted, Ai14 mouse ES reporter cells, promoter hbb + sp1, replicate 3 [5]: 3500 cells; RFP positive cells of 7000 sorted, Ai14 mouse ES reporter cells, promoter hbb, replicate 1 [5]: 414 cells; RFP positive cells of 7000 sorted, Ai14 mouse ES reporter cells, promoter hbb, replicate 2 [5]: 378 cells; RFP positive cells of 7000 sorted, Ai14 mouse ES reporter cells, promoter hbb, replicate 3 [5]: 391 cells; recombinase activity in vitro (loxP excision, gel): one of the mutants (Cre-A1) was active individually; recombinase activity in vitro (loxP excision, gel) (Cre-B1): the combined pair of redesigned mutants was active (Cre-A1+Cre-B1
